From a protein production outcome set (Wang et al. 2014)

Test: label from the status in PepcDB records

Sequence	protein production
MPGHVPPDLAVIEVTERRTRRSPAGYRPRMSEVVQVGAWGLLAGSALLLGAAIGFGVRVSQKVIATVMAFGAGVLISAVSYELVGEAYEQAGLAPAAIGTVIGAAAYTLGNLWLARRGARHRKRSGHHTAQAQPSEAQQGGSGLALAFGALLDGVPESAVIGVSLLDGGTVSTVTVAAVFISNVPEGLSSSAGMKRAGRGTTYVFGVWGAIAATSTLAAVLGYTVVGAFSPAVIAAVTAVAAGAILAMIADTMIPEAFEDAHLAIGLVTVSGFLVSFALSHV	failed
MPGLPEVAPGDDLAKLIAAVEPGLVDGDVLLVTSKIVSKAEGRIVRADDREAAIDAETVRVVARRGALRIVENRQGLVMAAAGVDASNTPSGTVLLLPEDPDASARAIRDGLRDTLGVDVGVVVTDTFGRPWRTGLTDVAIGAAGVRVLDDLRGGTDAYGNPLSATVVATADELAAAGDLVKGKAAGLPVAVVRGLPHVIAGDDEAGARAMVRGGRDDMFRLGTSEAVREAVTQRRTVRAFTDEPVDPGAVRRAVAAAVTAPAPHHTTPWRFVLLESAESRTRLLDAMRDAWIADLRGDRKTEESIAKRVRRGDVLRNAPYLVVPCMVMDGSHSYGDARRDAAEREMFVVATGAGVQNFLVALAGERLGSAWVSSTMFCRDVVRRALGLPESWEPMGAVAVGHAAEEPRDRPARDAGAFIEVRLEHHHHHH	not failed
MPGRKRKLAAKTAELAPEAGEGSESTSLVGSADASASTAAGVAHTEQQEMPSGGLHESFLESIPPAASFLEELAWVESLASPSYVAYLCQMRRFDDVVAQRRLTTLQRWRQDPAYRQHVSQPIALFFLEQLCSAEFREALRHPAVAALYERQVDLYRRCYGNLLNTGESRVLR	not failed
MPGSALLSLQQELRRGFEALKAAKDTFDGGHAECQELVSSLGNLAPQLKALKQVQISETPLSGFPCLQQRLHYKLSLAVDALLAKLAEKMAALQKVWDAFAQQVFTVVQLYEKNTDALDISVCVSRSAVCPSVSDMLEWLQDADRYYRLQLMQSRLLLQTLTPTDLTSMETAPNRWRSVRSARQEERIADALCQVSIFLETE	failed
MPGSRDILADLVAFDTVSRESNLALIDYVRDYLAGFGVDSELFFDADGRKANLYATIGPSDRGGVCLSGHTDVVPADGQAWSVPPFRLSERDGRLYGRGTADMKGYLACVLAAVPAFLAAPLRLPVHLAFSYDEEVGCLGVRSLLAALERRPHKPLLCIIGEPTELKPVLGHKGKLAMRCEVHGAACHSAYAPQGVNAIEYAARLIGRLGEIGARLAVPERHDRRFDPPYSTVQTGLIQGGRALNIVPAECRFDFEVRALPADDPRQVAEELRDYAESELLPRMRAVERSTDIRFTPLSAYPGLLTADDSQAAELIGLLSGSTDFSTVAFGTEGGLFHQAGIPAVICGPGSMDQGHKPDEFVSLAQLEACDALLARLAAW	failed
MPGWHAGGKPACRVPLLTKTGRFKRPVFSSSLSATPRFVAALRSTLLYEGAQHMLKLFVRNLPPQTTEAGLKELFTGYGKVFELQLSRDMFTGKARGTASVSMEGHEARKAIEALDGSDYEGKTIYVALDKGPRSGGRGRR	failed
MPGYQKTKDVGHFLSVTGTVIRTSLVKVLEFERDYMCNKCKHVFVIKADFEQYYTFCRPSSCPSLESCDSSKFTCLSGLSSSPTRCRDYQEIKIQEQVQRLSVGSIPRSMKVILEDDLVDSCKSGDDLTIYGIVMQRWKPFQQDVRCEVEIVLKANYIQVNNEQSSGIIMDEEVQKEFEDFWEYYKSDPFAGRNVILASLCPQVFGMYLVKLAVAMVLAGGIQRTDATGTRVRGESHLLLVGDPGTGKSQFLKYAAKITPRSVLTTGIGSTSAGIVLNCTVSPGSLVCKLNTRTTILAATNPKGQYDPQESVSVNIALGSPLLSRFDLILVLLDTKNEDWDRIISSFILENKGYPSKSEKLWSMEKMKTYFCLIRNLQPTLSDVGNQVLLRYYQMQRQSDCRNAARTTIRLLESLIRLAEAHARLMFRDTVTLEDAITVVSVMESSMEVHC	failed
MPIDQEKLAKLQKLSANNKVGGTRRKLNKKAGSSAGANKDDTKLQSQLAKLHAVTIDNVAEANFFKDDGKVMHFNKVGVQVAAQHNTSVFYGLPQEKNLQDLFPGIISQLGPEAIQALSQLAAQMEKHEAKAPADAEKKDEAIPELVEGQTFDADVE	failed
MPIFSFLLFVFISSFTPGPNNFLAMTYANQHGLKRSINFCFGVAFGFFILTSLCSFFNIVLINIIPIIEFPLKILGVAYMLYLAFKIITSKGGAGHNEKNNKNLFTVGIFLQFINPKGILFGLTVVSTFILPYYNSYSSFLLFSLFLGIVGLLSTFSWSLFGSMFQKLLLKHNQLFNIIMAVLLVFSAVSIVIH	failed
MPIIIDKDLPARKVLQEENIFVMTKERAETQDIRALKIAILNLMPTKQETEAQLLRLIGNTPLQLDVHLLHMESHLSRNVAQEHLTSFYKTFRDIENEKFDGLIITGAPVETLSFEEVDYWEELKRIMEYSKTNVTSTLHICWGAQAGLYHHYGVQKYPLKEKMFGVFEHEVREQHVKLLQGFDELFFAPHSRHTEVRESDIREVKELTLLANSEEAGVHLVIGQEGRQVFALGHSEYSCDTLKQEYERDRDKGLNIDVPKNYFKHDNPNEKPLVRWRSHGNLLFSNWLNYYVYQETPYVL	not failed
MPIIKSSRVNIGRFTIGGSIPIVIISIFDHDAKSLTEKFETKKLSDKNLYEIRFDLFDKVNIDEELEIIRALDEMDIDYIFTYRGHDPEKIYETAITKMVPAVDMDLSLLNKVNRRSPDTRIMVSYHTDSSKDMIEKLDEMLKANADIVKVACNYKDEKNFFKDLIEIAQRKEISGKPVLFIPMGKSFLRVISAYYVSDMVYAKYDKETAMGQPDPDYYNKAFSLFNYIG	failed
MPIKARETDMATRFKGLSAFPITPADEAGRVDIEAFSALIARLDAAEVDSVGILGSTGIYMYLTREERRRAIEAAATILRGRRTLMAGIGALRTDEAVALAKDAEAAGADALLLAPVSYTPLTQEEAYHHFAAVAGATALPLAIYNNPTTTRFTFSDELLVRLAYIPNIRAIKMPLPADADYAGELARLRPKLSDDFAIGYSGDWGCTDATLAGGDTWYSVVAGLLPVPALQLMRAAQAGNAEEAKRLDATFQPLWALFKEFGSIRVIYAAANILSLTVSEPPRPILPLTSAERQRVEEALEALSALETAP	not failed
MPILIVAVGVLILLFLIIKVKLNTFVSLIVVSFLVAIGLGMDINKIVLSIETGIGGQLGHLALVFGLGAMLGRLVSDAGGGYRIAITLIDKFGRKRIQAAVVVASFIIGIALFFEVGLVLLIPIVYAIAKELKMPFLYLGIPMAAALNVTHGFLPPHPAPTAISVAYGAHIGQVLLFGIIIAVPTTVIAGPLFNKFAMKRFPGAYQKHGNLSGLGPRKEFQLDETPGFAISAVTSLFPVIFMAMATIFSLLLSEHSKGKDIIEFIGTPGTAMLISLLLALYTMGYARKISMQEIGRSISESISQIAMMLLIIGGGGAFKQVLIDGGVGDYVADFFRQTNMSPLFVAWTIAAVLRLCLGSATVAALTTAGMAAPLMEAGSVNPALMVLATGAGSVIACHVNDAGFWMVKEFFGLSMKETFQTWTLLTTVLSVTGLGCVLLAGLVM	failed
MPIMGSSVYITVELAIAVLAILGNVLVCWAVWLNSNLQNVTNYFVVSLAAADIAVGVLAIPFAITISTGFCAACHGCLFIACFVLVLTQSSIFSLLAIAIDRYIAIRIPLRYNGLVTGTRAKGIIAICWVLSFAIGLTPMLGWNNCGQPKEGKNHSQGCGEGQVACLFEDVVPMNYMVYFNFFACVLVPLLLMLGVYLRIFLAARRQLKQMESQPLPGERARSTLQKEVHAAKSLAIIVGLFALCWLPLHIINCFTFFCPDCSHAPLWLMYLAIVLSHTNSVVNPFIYAYRIREFRQTFRKIIRSHVLRQQEPFKAAGTSARVLAAHGSDGEQVSLRLNGHPPGVWANGSAPHPERRPNGYALGLVSGGSAQESQGNTGLPDVELLSHELKGVCPEPPGLDDPLAQDGAGVS	not failed
MPISNPCFTSFTQPIDGYTLPEKFTFPFCYEPHPLCELAAEELQRHLEAQQEWHHNFGLSGDKSNAIGKMFGVLLVKAPTGEIGYLSAFSGKIADSNHLPYFVPPVFDMLEEDGFFKTELAEITEINATIKQLEANPQLSHLATSIQSETTASLQQIEIQRQVMIEGRKSRKAQRAAAEITAQDGTEKSAEELEQLKVVLGKESVKEKNTLRDIKLIWDEKINALQCQLNELEDALNELKTKRKNLSNGLQKKLFQQYKFLNTHGIEKDLNDIFKDTPNQIPPAGSGECAAPKLLQYAFAHGFTPLALAEFWWGIAPKSEIRQHKKFYASCQSKCQPILGHMLDGIEMDENPLLINPAEGKDLEIVYEDEFMVVVNKPADFLSVPGKNIHDSVYARIQQRYPDATGGLIIHRLDMATSGLLVLGLTPKAHKRLQQQFINRTVEKRYTALLDGVLEQDEGLITLPMRGDLYDRPRQLVCFEHGKPAETTYQVIERKENKTKVYLYPKTGRTHQLRVHCAHYLGLNMPITGDGLYGKKANRLHLHAGYLSLIHPITKEPMEFNVEAEF	not failed
MPKDNEEPLVKIPEFDERKFLFDEKERAKSIVIIFIIGAIVGSISGYFQLIGYWYLSLILILVVLLFSEYILKGLGVQVSKKTSHRILLVGEFLLTWLVFWILVLNPPLNHVSGPEIANLQMYSNNVWTSIVEKNGVYNIPFGSATSGTVSLRVYMFAYSGVVSYKVMAYQSSYAPAVIPSHLNDNYLYFNLTDVHYGSTYYVQVYGSTTVNGSNLTSEVSYTLYAE	failed
MPKIHELSETLTNQIAAGEVIERPASVVKELVENSLDAGATRIRVDFVDAGLKQIVVQDNGTGIARDQVDLAFTRHATSKISNEHDLFKVATLGFRGEALASISAVSHVEILTATKGAIGVKATFSGGNKKGQEDAAAREGTQITVRDLFFNTPARLKYLRSPRTEIMKIVDIINRLALGYPSVSFTLSNTGKVLLRTPGNGNLKQTVANVYGRHIAEKMEEFEAKDNDFKISGLMSKPELTRSTRNFVSILLNGRYIRNFQLNTAIMDGYGAKLAARHYPIIVLAIQVDPLLVDVNVHPTKQEVRLSKEKELSRLITSTISNVFIKKTEQTSAFANLENKRETLVDQLQFNLNQNVVNTARKKTPEIHENNEKPEFLAKPKKPEEEKTDYVDLNIPREDDKYIITKTWDKNVLLQQDLRPFSNTLCDSEVISSGDETLANNLPQLSYIGQIDTYIIAENNSDLFLIDQVAARRRLQFEKIYEMLLSKKIVQQGLLTPIVLEFGNLDFIQIKDKIDQIKQIGIYLEDFGQNSFIVRSYPTWIHNDVEETIRQILDGYLNLDKGKSENLFKRVAAMQAKRDISGKINLAAAEASQILIDLRKTEDPYHDADGRLVLVRMSENELKKMFKRDK	failed
MPKITVYTGKEVLQIDAKEGSSLLDILAENSLYVEAPCGGKGICGKCKVAVKKDGKPYLENITKEEKRLLTSDELQKGIRLCCNLKVFESLEVFLPHSKIGAKILSGLYTLEHHHHHH	failed
MPKKDNFSILLMGIDARPGQSMDKERSDAMVLATFNRKDKSVKLLSIPRDSYVNIPGRGYDKITHAHSLGGRDLSTETVENLLDIPVDYVMEANFSAFKEVVDELGGVPITIKEDYIVRQIKKDTKGKVNLQTGEQTLGGEEALAYVRTRKADTDLKRGERQMEVIKSIINKSKSLTSIPAYDDILDTVGKNVSMNLSLNDAIGLIPFMTSIQTVDTLQLKGSDYQPGKVYYFQLDQENLNEIKQELKQQLDVLEHHHHHH	not failed
MPKKYDEATKSKAVRLVVDHRDEYDSEYGCIRAVATRIGVGPETLRKWVRQAEIDGGERDGVTTATNRENRELKRKVAELEQTVEMLRAATTFFVRESDPRHR	failed
MPKLGMEPIRKAALVKATIVEIGRAGSLDVTVSQIAKRAGMSSALAHHYFGGKEALFIAAMRHVLSLYGAEVRGALLGAETPAARITAILQASFSATNFRREVVGAWLNFYVLAQTAPQARRLLAIYQRRLRSNLLVGLRPLAGERAADLADGLGALIDGLYLREVLKEGPPDSAAAVACARAYLNAHLKECPL	failed
MPKLLIPAIIFITLALIFYTIGVWSEHRAGILKKKHVIIFWCGLVCDTLGTYTMSRIVAAGTDKGITPTDLLIHQSTGMLAIILMLIHAVWATIVLNRGSEKAKAIFHKFSLVVWFIWLIPYFVGMYIGMTS	failed
